Assay: Detection of test substance in rat plasma by LC-MS/MS (Test Example 3)
Assay type: in vivo
Conditions: rat plasma, 100 nmol/kg i.v., LC-MS/MS; time at which the test substance was finally detected
Description: Before the administration and 15, 30, 60, 90, 120, 180, and 240 minutes after the administration, blood was sampled (200 μL/sampling) over time from the jugular vein. The blood samples were immediately left on ice.
The collected blood samples were centrifuged at 5000 rpm at 4° C. for 5 minutes by use of a centrifuge (Sigma 4K15, rotor: Nr12130-H). The separated plasma samples were divided into two types (samples for PK measurement and for cGMP measurement) and stored at −80° C. until measurement.
An internal standard (20 μL (500 nM) of a stable isotope of hANP) and an acetic acid mixed solvent (AcOH/distilled water/DMSO=5/3/2, v/v/v) were added to 50 μL of each rat plasma sample prepared in (1) and then mixed therewith. The mixture was transferred to Amicon Ultra-0.5 50K (Millipore Corp., MA) and centrifuged at 14000 rpm at 15° C. for 30 minutes. The obtained filtrate was transferred to Amicon Ultra-0.5 3K (Millipore Corp., MA) and centrifuged again under the aforementioned conditions. The solution remaining on the filter was recovered and transferred to a 96-well deep well plate. The content of the test substance was measured by LC-MS/MS (LC: Shimadzu LC-10ADVP (Shimadzu Corp.), MS/MS: API 4000 QTrap (AB SCIEX)) to calculate the concentration in plasma. The time at which the test substance was finally detected is shown in the rightmost column of Table 2.

Question: Which “Maximum time of detection after administration” value does the source give for `CC[C@H](C)[C@@H]1NC(=O)[C@H](CCCNC(=N)N)NC(=O)[C@H](CC(=O)O)NC(=O)[C@H](CCSC)NC(=O)[C@H](CCCNC(=N)N)NC(=O)CNC(=O)CNC(=O)[C@H](Cc2ccccc2)NC(=O)[C@@H](NC(=O)[C@H](CO)NC(=O)[C@H](CO)NC(=O)[C@H](CCCNC(=N)N)NC(=O)[C@H](CCCNC(=N)N)NC(=O)[C@H](CC(C)C)NC(=O)[C@H](CO)NC(=O)CO[C@@H]2O[C@H](CO)[C@@H](O[C@@H]3O[C@H](CO)[C@@H](O[C@@H]4O[C@H](CO[C@H]5O[C@H](CO)[C@@H](O)[C@H](O)[C@@H]5O)[C@@H](O)[C@H](O[C@H]5O[C@H](CO)[C@@H](O)[C@H](O)[C@@H]5O)[C@@H]4O)[C@H](O)[C@H]3NC(C)=O)[C@H](O)[C@H]2NC(C)=O)CSSC[C@@H](C(=O)N[C@@H](CC(N)=O)C(=O)N[C@@H](CO)C(=O)N[C@@H](Cc2ccccc2)C(=O)N[C@@H](CCCNC(=N)N)C(=O)N[C@@H](Cc2ccc(O)cc2)C(=O)O)NC(=O)CNC(=O)[C@H](CC(C)C)NC(=O)CNC(=O)[C@H](CO)NC(=O)[C@H](CCC(N)=O)NC(=O)[C@H](C)NC(=O)CNC1=O` [Compound 2-26, AG(5)-hANP(1-28)] here?
Answer: 2 h

Question: Which “Maximum time of detection after administration” value does the source give for `CC[C@H](C)[C@@H]1NC(=O)[C@H](CCCNC(=N)N)NC(=O)[C@H](CC(=O)O)NC(=O)[C@H](CCSC)NC(=O)[C@H](CCCNC(=N)N)NC(=O)CNC(=O)CNC(=O)[C@H](Cc2ccccc2)NC(=O)[C@@H](NC(=O)[C@H](CO)NC(=O)[C@H](CO)NC(=O)[C@H](CCCNC(=N)N)NC(=O)[C@H](CCCNC(=N)N)NC(=O)[C@H](CC(C)C)NC(=O)[C@H](CO)NC(=O)CO[C@@H]2O[C@H](CO)[C@@H](O[C@@H]3O[C@H](CO)[C@@H](O[C@@H]4O[C@H](CO[C@H]5O[C@H](CO)[C@@H](O)[C@H](O)[C@@H]5O[C@@H]5O[C@H](CO)[C@@H](O[C@@H]6O[C@H](CO)[C@H](O)[C@H](O)[C@H]6O)[C@H](O)[C@H]5NC(C)=O)[C@@H](O)[C@H](O[C@H]5O[C@H](CO)[C@@H](O)[C@H](O)[C@@H]5O[C@@H]5O[C@H](CO)[C@@H](O[C@@H]6O[C@H](CO)[C@H](O)[C@H](O)[C@H]6O)[C@H](O)[C@H]5NC(C)=O)[C@@H]4O)[C@H](O)[C@H]3NC(C)=O)[C@H](O)[C@H]2NC(C)=O)CSSC[C@@H](C(=O)N[C@@H](CC(N)=O)C(=O)N[C@@H](CO)C(=O)N[C@@H](Cc2ccccc2)C(=O)N[C@@H](CCCNC(=N)N)C(=O)N[C@@H](Cc2ccc(O)cc2)C(=O)O)NC(=O)CNC(=O)[C@H](CC(C)C)NC(=O)CNC(=O)[C@H](CO)NC(=O)[C@H](CCC(N)=O)NC(=O)[C@H](C)NC(=O)CNC1=O` [Compound 2-10, AG(9)-hANP(1-28)] here?
Answer: 1.5 h
